Consider three substances from US20070071744A1.

In assay [1] the target is mouse GPVI on mouse platelets (mouse) (UniProt P0C191). Nature of the assay: cell-based or functional assay.
Assay [2] has as its target Fc-GPVI-nt (immunoadhesin: extracellular domain of human GPVI fused via Gly-Gly-Arg to human IgG Fc, dimer) (human). In words: competition ELISA, immobilized collagen as competitor.
For the next assay, the target named is T1, peptide 7 (human).
T1 sequence (peptide, N-terminus acetylated): LCLGRVPAQSGPL
Nature of the assay: PepSpot peptide array, control incubation.

For a further assay, the target named is T2, peptide 118 (human).
T2 sequence (peptide, N-terminus acetylated): TNKVFTTETSRSI
Nature of the assay: PepSpot peptide array, control incubation.

Another assay has as its target T3, peptide 117 (human).
T3 sequence (peptide, N-terminus acetylated): SFTNKVFTTETSR
In words: PepSpot peptide array, control incubation.

Where “and” joins values, the source holds several entries; their conditions need not be identical. Equal entries are not always repeated.

Sequence of mouse GPVI on mouse platelets (mouse) (P0C191 22-313): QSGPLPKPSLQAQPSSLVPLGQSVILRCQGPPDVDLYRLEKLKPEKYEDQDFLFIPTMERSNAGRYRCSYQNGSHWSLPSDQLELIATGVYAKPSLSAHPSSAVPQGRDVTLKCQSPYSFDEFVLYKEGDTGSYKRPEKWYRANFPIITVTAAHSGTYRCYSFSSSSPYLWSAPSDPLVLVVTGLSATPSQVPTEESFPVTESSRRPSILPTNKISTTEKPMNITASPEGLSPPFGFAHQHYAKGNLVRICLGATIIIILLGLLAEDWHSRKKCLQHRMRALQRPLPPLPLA
Sequence of Fc-GPVI-nt (immunoadhesin: extracellular domain of human GPVI fused via Gly-Gly-Arg to human IgG Fc, dimer) (human) (chain, as listed by the source limits assumed): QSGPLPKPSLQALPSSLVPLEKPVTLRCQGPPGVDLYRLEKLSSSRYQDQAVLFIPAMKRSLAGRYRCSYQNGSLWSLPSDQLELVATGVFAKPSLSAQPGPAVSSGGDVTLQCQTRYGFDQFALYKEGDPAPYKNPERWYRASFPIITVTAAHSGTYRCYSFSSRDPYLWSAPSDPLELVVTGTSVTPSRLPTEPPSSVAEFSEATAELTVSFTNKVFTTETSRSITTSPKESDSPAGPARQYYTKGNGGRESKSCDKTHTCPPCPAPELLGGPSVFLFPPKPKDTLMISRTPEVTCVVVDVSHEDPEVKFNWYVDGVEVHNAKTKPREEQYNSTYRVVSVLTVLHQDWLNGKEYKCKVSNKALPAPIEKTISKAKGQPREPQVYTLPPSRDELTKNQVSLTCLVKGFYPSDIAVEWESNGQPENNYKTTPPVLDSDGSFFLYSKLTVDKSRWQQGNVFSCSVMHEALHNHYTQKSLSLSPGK

As to monoclonal antibody anti GPVI (JAQ1), in assay [1], the ATP release is 1.09 nM ATP; the platelet aggregation of mouse platelet-rich plasma after stimulation with 2 µg collagen/ml was 2% and 1.5%.
Substance “soluble collagen (solubilized fibrillar collagen) (ligand)” showed a concentration required to reduce Fc-GPVI-nt binding by more than 50% in assay [2] of 100 µg/mL.
Take anti-rat-HRP (Sigma A9037) (antibody): the LU (Light Units) is 239 LU with peptide 7 (human), 354 LU in the assay with peptide 118 (human) and 377 LU with peptide 117 (human).
